Source: patent US20260008856A1, “METHODS OF TREATING DISEASE USING ANTI-IL1RAP ANTIBODIES AND ANTIBODY DRUG CONJUGATES” (Bluefin Biomedicine, Inc., priority 2022, published 2026)

Assays:
EOL-1 = experiment: Flow cytometry binding to endogenous cell line EOL-1; format: cell-based, human; set-up: key to binding to EOL-1 by flow cytometry: (−): No binding; (+): Weak binding; (++): Moderate binding; (+++): Strong binding; conditions: primary antibody 1 ug/ml
Procedure: (§1) Staining for flow cytometry was performed in 1× cold PBS with 0.5% BSA. Primary antibodies (1 ug/ml) were incubated with live cells on ice for 30 minutes, after a brief wash, cells were incubated with Alexa Fluro® 488-conjugated anti-human IgG secondary antibody @1:1000 (709-546-149, Jackson ImmunoResearch). Acquisition of the data was performed on a MACSQuant® Flow Cytometers (Miltenyi Biotec) and analyzed with FlowJo software.
(§2) Over 1,000 hits were identified that bind strongly to CHO-human IL1RAP, but not parental CHO cells. 68 clones were selected for molecular cloning. Based on unique CDR3 sequences from the heavy chain variable domain, 35 antibodies from 13 families were confirmed by binding in IL1RAP positive cell lines EOL1 and Karpas 299 (see Table 8) by flow cytometry (MACSQuant® www.miltenybiotec.com).

Karpas 299 = experiment: Flow cytometry binding to endogenous cell line Karpas 299; format: cell-based, human; set-up: key to binding to Karpas 299 by flow cytometry: (−): No binding; (+): Weak binding; (++): Moderate binding; (+++): Strong binding; conditions: primary antibody 1 ug/ml
Procedure: as §1, §2

recombinant human IL1RAP = molecular target: T1, recombinant human IL1RAP (Homo sapiens, UniProt Q9NPH3); experiment: Binding competition binning on Octet; conditions: Protein A biosensors
T1 construct: MBP-IL1RAP(S21-T367)-; 8xHis (C); made in house; host or cells: CHO (ExpiCHO transient expression)
Procedure: Binding Competition binning: Binding competition among different antibodies was determined using a real-time, interferometry assay on an Octet Red™ instrument with Protein A-conjugated biosensors. To assess whether two antibodies competed for binding to a recombinant IL1RAP protein, the assay was performed as follows. Protein A biosensors were first submerged into wells containing 10 ug/mL of individual monoclonal antibodies for 5 minutes. Following the capture step, the biosensors were dipped briefly (15 seconds) into buffer and then any unoccupied sites on the biosensor were saturated by submerging them for 5 minutes into wells containing 100 ug/mL of an irrelevant monoclonal antibody. The Octet™ biosensors were then dipped briefly (15 seconds) in buffer before immersion for 1 minute into wells containing recombinant IL1RAP. The biosensors were dipped briefly (15 seconds) in buffer before immersion for 1 minute into wells containing a second recombinant antibody.
For the control case where the second antibody was the same as the first, there was no increase in signal, because there was no additional binding to the recombinant target.
For the control case where buffer was used instead of the first antibody, no recombinant target bound the non-quenching antibody on the biosensor and no second antibody bound the biosensor.
Selected antibodies were evaluated in pairs for their ability to simultaneously bind recombinant human IL1RAP. The analysis was performed by Octet™ loaded with Protein A Biosensors. A total of five different bins were determined as follows.

mouse IL1RAP = molecular target: T2, mouse IL1RAP (Mus musculus, UniProt Q61730); experiment: Flow cytometry binding to 293 cells expressing mouse IL1RAP; format: cell-based; conditions: 1 ug/ml
T2 construct: Met1-Val570; host or cells: HEK-293T
T2 sequence (Q61730 21-570): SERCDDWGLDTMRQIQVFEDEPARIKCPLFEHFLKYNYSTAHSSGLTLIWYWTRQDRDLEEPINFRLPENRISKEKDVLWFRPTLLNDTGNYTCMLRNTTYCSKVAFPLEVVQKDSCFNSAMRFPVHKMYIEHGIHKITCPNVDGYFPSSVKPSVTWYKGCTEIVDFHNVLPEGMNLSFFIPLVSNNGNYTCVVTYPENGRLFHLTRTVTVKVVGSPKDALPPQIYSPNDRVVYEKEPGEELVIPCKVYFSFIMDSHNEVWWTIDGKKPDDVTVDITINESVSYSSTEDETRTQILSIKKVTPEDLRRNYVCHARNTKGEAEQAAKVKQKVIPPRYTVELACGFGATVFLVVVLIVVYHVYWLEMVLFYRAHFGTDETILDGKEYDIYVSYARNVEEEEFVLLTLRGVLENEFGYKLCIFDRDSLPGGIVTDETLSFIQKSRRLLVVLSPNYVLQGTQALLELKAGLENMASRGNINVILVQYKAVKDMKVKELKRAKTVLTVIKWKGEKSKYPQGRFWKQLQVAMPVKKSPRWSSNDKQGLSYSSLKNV
Procedure: 293T cell line was purchased from American Type Culture Collection (ATCC). 293T cells expressing human, Macaca fascicularis, rat, and mouse IL1RAP were maintained in DMEM medium (Invitrogen) with 10% fetal bovine serum (FBS) (Sigma) in the presence of 2 ug/ml puromycin (Invitrogen).
as §1

MOLT3 = experiment: Flow cytometry binding to endogenous cell line MOLT3; format: cell-based; set-up: key: (−): No binding; (+): Weak binding; (++): Moderate binding; (+++): Strong binding; conditions: primary antibody 1 ug/ml
Procedure: as §1

IL-1β signaling = experiment: IL-1 signaling reporter cell assay (HEK-Blue IL-1β cells), IL-1β; format: cell-based; conditions: HEK-Blue IL-1β cells, antibody 1-10 pg/ml, IL-1β 0.5 ng/ml
Procedure: (§3) HEK-Blue IL-1β cells (Invivogen, CA) were harvested and plated in technical duplicates at a density of 50,000 cells per well in a 96-well plate. IL1RAP antibodies, or a corresponding human IgG1 control antibody was added to the wells in a concentration range of […]. After incubating cells with antibodies for 30 minutes, IL-1β was added to a final concentration of 0.5 ng/ml, and the plate was incubated overnight. To examine whether any of the antibodies were able to induce IL-1R activation in the absence of IL-1β, samples were incubated with 10 μg/mL antibody without addition of the ligand. The following day, substrate was added to the supernatants, and samples were analyzed for absorbance at 620 nm.

IL-33 signaling = IL-33 signaling reporter cell assay (HEK-Blue IL-33 cells); format: cell-based; conditions: antibody 1-10 μg/ml, IL-33 0.5 ng/ml
Procedure: FIGS. 7A and 7B show blockage of IL-33 signaling by anti-IL1RAP antibodies. HEK-Blue IL-33 cells (Invivogen, CA) were harvested and plated in technical duplicates at a density of 50,000 cells per well in a 96-well plate. Antibodies, or a corresponding human IgG1 control antibody, was added to the wells in a serial dilution starting at 10 μg/ml (FIG. 7A), or a concentration of 1 and 10 μg/ml (FIG. 7B). After incubating cells with antibodies for 30 minutes, IL-33 was added to a final concentration of 0.5 ng/ml, and the plate was incubated overnight. 24 hours later, substrate was added to the supernatants, and samples were analyzed for absorbance at 620 nm. CBIgG1 (anti-hen egg lysozyme antibody, CrownBio™) was included as a negative control.
as §3, with “IL-33” for “IL-1β”, “plate.” for “plate. IL1RAP”, “ST2” for “IL-1R”, “IL-33,” for “IL-1β,”

H69 = experiment: Flow cytometry binding to endogenous cell line H69; format: cell-based; set-up: key: (−): No binding; (+): Weak binding; (++): Moderate binding; (+++): Strong binding; conditions: primary antibody 1 ug/ml
Procedure: as §1

| competition for binding, bin (1) (recombinant human IL1RAP) | binding to 293 cells expressing mouse IL1RAP (mouse IL1RAP) | competition for binding, bin (3) (recombinant human IL1RAP) | competition for binding, bin (4) (recombinant human IL1RAP) | competition for binding, bin (2) (recombinant human IL1RAP) | Molecule | binding to EOL-1 by flow cytometry (EOL-1) | binding to Karpas 299 by flow cytometry (Karpas 299) | binding to MOLT3 by flow cytometry (MOLT3) | inhibition of IL1R1 / IL-1 signaling (IL-1β signaling) | inhibition of IL-33 signaling (IL-33 signaling) | binding to H69 by flow cytometry (H69) |
| --- | --- | --- | --- | --- | --- | --- | --- | --- | --- | --- | --- |
| competed with each other | bind weakly |  |  |  | 5D12_18A4: human anti-IL1RAP antibody, VH SEQ ID NO: 163, VL SEQ ID NO: 167 (antibody, V domains shown) VH: QVQLQESGPGLVKPLGTLSLTCAVSGGSISNSNWWSWVRQPPGKGLEWIGEIYHSGSTNYNPSLKSRVTIALDWSKNQFSLQLRSVTAADTAVYYCARYGSGPFGGDCWGQGTLVTVSS VL: DIQLTQSPSFLSASVGDRVTISCRASQGISSYLAWYQQKPGKAPKLLIYAASTLQGGVPSRFSGSGSGTTFTLTISSLQPEDFATYYCQQLNTYPFTFGPGTKLEIK | (+++) | (++) |  |  |  |  |
|  |  | competed with each other | competed with each other |  | 36A10_21B6: human anti-IL1RAP antibody, VH SEQ ID NO: 48, VL SEQ ID NO: 52 (antibody, V domains shown) VH: QGQVVESGGGVVQPGRSLRLSCAASGFTFSSYTLHWVRQAPGKGLEWVAVIWYDGSNKYYVDSVKGRFTISRDNSKNTLYLQMNSLRAEDTAVYYCAREYGSGSYYNVYYGMDVWGQGTTVTLSS VL: DIVMTQSPLSLPVTPGEPASISCRSSQSLLHSNGYNYLDWYLQKPGQSPHLLIYLASNRASGVPDRFSGSGSGTDFTLKISRVEAEDVGFYYCMQTLQIPLTFGGGTKVEIK | (+++) | (++) | (+) | potent inhibition | partially inhibit |  |
|  |  |  |  |  | 33H2_21B1: human anti-IL1RAP antibody, VH SEQ ID NO: 140, VL SEQ ID NO: 143 (antibody, V domains shown) VH: EVQVVESGGGLVQPGGSLRLSCATSGFTFRSYWMTWVRQAPGKGLEWVANIKQDGSERHYVDSVKGRFTISRDNAKTSLYLQMSSLRAEDTAMYYCAREGYYGSGYFDYWGQGTLVTVSS VL: DIQMTQSPSTLSASVGDRVIITCRASQSISRGLAWYQQKPGKAPKLLIYKASNLESGVPSRFSGSGSGTEFTLTISSLQPDDFAAYYCQQYSYYSHTFGQGTKVEIK | (+++) | (+++) | (+) |  |  |  |
|  |  |  |  |  | 10C8_15A4: human anti-IL1RAP antibody, VH SEQ ID NO: 106, VL SEQ ID NO: 108 (antibody, V domains shown) VH: EEQLLESGADLAQPGGSLRLSCAASGFTFSSYAMSWVRQAPGKGLEWVSTIRISGDTTYYADSVKGRFTISRDNSKNTLFLQMNSLRAEDTAVYYCVRDYYNGMDVWGHGTTVTVSS VL: EIVLTQSPATLSLSPGERATLSCRASQRVSSYLAWYQQKPGQAPRLLIYDASNRATGIPARFSGSGSGTDFTLTISSLEPEDFAVYYCQQRSYWPPAFGQGTKLEIK | (+++) | (+++) |  |  |  | (−) |
|  |  |  |  |  | 26C5_15B4: human anti-IL1RAP antibody, VH SEQ ID NO: 96, VL SEQ ID NO: 98 (antibody, V domains shown) VH: EAQLLESGGGLVQPGGSLRLSCAASGFTFSSYAMSWVRQAPGKGLEWVSTISGSGGSTHYADSVKGRFTISRDNSKNTLYLQMNSLRAEDTAVYYCVRDYYYGMDVWGQGTTVTVSS VL: EIVLTQSPATLSLSPGERATLSCRASQSVSSYLAWYQQKPGQAPRLLIYDASNRATGIPARFSGSGSGTDFTLTISSLEPEDFAVYYCQQRSYWPPTFGQGTKLEIK | (+++) | (+++) |  |  |  | (−) |
|  |  |  |  |  | 16H2_17D1: human anti-IL1RAP antibody, VH SEQ ID NO: 83, VL SEQ ID NO: 87 (antibody, V domains shown) VH: EVQLLESGADLVQPGGSLRLSCAASGFTFSSYAMSWVRQAPGKGLEWVSTIRISGGTTYYADSVKGRFTISRDNSKNTLYLQMNSLRAEDTAVYYCVRDYYNGMDVWGQGTTVTVSS VL: EIVLTQSPATLSLSPGERATLSCRASQRVSSYLAWYQQKPGQAPRLLIYDASNRATGIPARFSGSGSGTDFTLTISSLEPEDFAVYYCQQRSYWPPAFGQGTKLEIK | (+++) | (+++) |  |  |  | (−) |
|  |  | competed with each other |  | competed with each other | 5G8_18A1: human anti-IL1RAP antibody, VH SEQ ID NO: 1, VL SEQ ID NO: 5 (antibody, V domains shown) VH: QVELQESGPGLVKPSDTLSLTCTVTGGSISTYYWSWIRQPPGKGLEWIGYIFYTGTTNYNPSLKSRVTISVDASKNQFSLKLNSVTAADTAVYYCARDGSLDYWGQGALVTVSS VL: DIQMTQSPSSLSASVGDRVTITCRASQSISNYLNWYQQKPGKAPKLLIFVASLLQSGVPSRFSGSGSGTDFTLTISSLQPEDFATYYCQQSYSTPFTFGPGTKLEIK | (+++) |  |  | potent inhibition |  | (−) |
|  |  |  |  | competed with each other | 16H2_17D2: human anti-IL1RAP antibody, VH SEQ ID NO: 25, VL SEQ ID NO: 29 (antibody, V domains shown) VH: QVQLVESGGGVVQPGGSLRLSCAASGFTFSSHGMHWVRQAPGKGLEWVAVIWYDGSNKFYTDSVQGRFTISRDNSKNTLNLQMNSLRAEDTAVYYCAREGLRAGYYFDFWGQGTLVTVSS VL: DIQMTQSPSSLSASVGDRVTITCRASQRISFYSNWYQQKPGKAPKLLIYAASSLQSGVPSRFSGSGSGTDFTLTISSLQPEDFATYFCQQSHSTPLTFGGGTKLEIK | (+++) |  |  | potent inhibition |  |  |
